Measurements: patent US20230338555A1 (IONIS PHARMACEUTICALS, published 2023)
Where two headings read alike, the source gives them in different places. Ends that are not written are not given here.

T1: human sortilin stably expressed on HEK 293 cells (HEK-SORT1 cells) (human, UniProt Q99523 78-831)
T1 sequence (looked up): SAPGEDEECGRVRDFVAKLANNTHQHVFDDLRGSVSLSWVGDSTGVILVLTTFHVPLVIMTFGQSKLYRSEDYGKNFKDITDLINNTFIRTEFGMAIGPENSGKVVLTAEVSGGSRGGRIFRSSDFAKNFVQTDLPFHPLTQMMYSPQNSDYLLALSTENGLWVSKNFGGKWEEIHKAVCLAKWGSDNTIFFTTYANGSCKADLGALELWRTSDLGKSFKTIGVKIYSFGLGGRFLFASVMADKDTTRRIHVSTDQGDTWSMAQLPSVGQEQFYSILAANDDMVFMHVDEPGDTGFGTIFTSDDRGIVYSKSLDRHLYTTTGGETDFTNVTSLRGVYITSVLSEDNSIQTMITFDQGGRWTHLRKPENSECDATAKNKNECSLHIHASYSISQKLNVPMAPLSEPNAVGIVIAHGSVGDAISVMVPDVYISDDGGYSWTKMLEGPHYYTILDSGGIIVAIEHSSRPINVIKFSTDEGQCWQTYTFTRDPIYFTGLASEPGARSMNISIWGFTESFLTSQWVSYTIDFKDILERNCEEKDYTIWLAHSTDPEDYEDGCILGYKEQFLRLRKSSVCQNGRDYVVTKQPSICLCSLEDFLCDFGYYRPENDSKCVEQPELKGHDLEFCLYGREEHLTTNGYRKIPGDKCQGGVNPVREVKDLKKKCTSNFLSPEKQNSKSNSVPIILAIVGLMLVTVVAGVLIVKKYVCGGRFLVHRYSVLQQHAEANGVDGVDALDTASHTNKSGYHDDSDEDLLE

B1: Compound No. 1162754, KNT neurotensin peptide conjugated to 20-mer uniform 2'-MOE phosphodiester oligonucleotide with 3'-Cy3 (peptide)
peptide: XLYENKPRRPYIL
modifications: not fully specified; position 1 printed dK (X = 2-azido-acetyl lysine); side chain joined via triazolo-BCN carbamate / 6-aminohexanol linker to the 5' end of oligonucleotide … (SEQ ID NO 2, uniform MOE, phosphodiester, 3'-Cy3)
B2: Compound No. 18-AJ9998, Morpholino oligomer-neurotensin conjugate 11 (Cy3 labeled) (peptide)
peptide: XLYENKPRRPYIL
modifications: X at position 1 is 2-azido-acetyl lysine joined via BCN to a Cy3-labeled phosphorodiamidate morpholino oligomer
B3: Compound No. 1215812, CPPPAGSSPGLYENKPRRPYIL peptide conjugated by a maleimide linker to 20-mer MOE oligonucleotide with 3'-Cy3 (peptide)
peptide: CPPPAGSSPGLYENKPRRPYIL
modifications: not fully specified
B4: Compound No. 1162756, extended neurotensin (eNT, XPPPAGSSPGLYENKPRRPYIL) conjugated to 20-mer MOE oligonucleotide with 3'-Cy3 (peptide)
peptide: KPPPAGSSPGLYENKPRRPYIL
modifications: not fully specified (residue 1); also: X side chain clicked via BCN (triazole) and 6-aminohexanol linker to 5' end of oligonucleotide CCAGGCTGGTTATGACTCAG (MOE, 3'-Cy3)
B5: Compound 17-AH-1492, Cy3-labeled extended neurotensin (eNT, …) (peptide)
peptide: KPPPAGSSPGLYENKPRRPYIL
modifications: not fully specified (residue 1); also: Cy3 label attached by BCN click to the azide
B6: 1162756 duplex (Compound No. 1162756 complexed to complementary MOE oligonucleotide …) (peptide)
peptide: KPPPAGSSPGLYENKPRRPYIL
modifications: not fully specified (residue 1); also: oligonucleotide hybridized to complementary MOE strand CTGAGTCATAACCAGCCTGG (duplex)

What was measured:
Assay in all cases: cell-based or functional assay
[1] = target: T1, human sortilin stably expressed on HEK …
[2] = target: T1, human sortilin stably expressed on HEK …; remark: listed apart in the source
[3] = target: T1, human sortilin stably expressed on HEK …; remark: listed apart in the source
[4] = target: T1, human sortilin stably expressed on HEK …; remark: listed apart in the source
[5] = target: T1, human sortilin stably expressed on HEK …; remark: listed apart in the source
[6] = target: T1, human sortilin stably expressed on HEK …; remark: listed apart in the source
[7] = target: T1, human sortilin stably expressed on HEK …; remark: listed apart in the source
[8] = target: T1, human sortilin stably expressed on HEK …; remark: listed apart in the source

| Binder | Mean Fluorescence Intensity (MFI), uptake 37C-4C, at 12 nM [1] [MFI] | Mean Fluorescence Intensity (MFI), uptake 37C-4C, at 111 nM [1] [MFI] | Mean Fluorescence Intensity (MFI), uptake 37C-4C, at 333 nM [1] [MFI] | Mean Fluorescence Intensity (MFI), uptake 37C-4C, at 1000 nM [1] [MFI] | Mean Fluorescence Intensity (MFI), uptake 37C-4C, at 7 nM [3] [MFI] | Mean Fluorescence Intensity (MFI), uptake 37C-4C, at 22 nM [3] [MFI] | Mean Fluorescence Intensity (MFI), uptake 37C-4C, at 76 nM [3] [MFI] | Mean Fluorescence Intensity (MFI), uptake 37C-4C, at 260 nM [3] [MFI] | Mean Fluorescence Intensity (MFI), uptake 37C-4C, at 882 nM [3] [MFI] | Mean Fluorescence Intensity (MFI), uptake 37C-4C, at 3000 nM [3] [MFI] | Mean Fluorescence Intensity (MFI), uptake 37C-4C, at 12 nM [5] [MFI] | Mean Fluorescence Intensity (MFI), uptake 37C-4C, at 37 nM [5] [MFI] | Mean Fluorescence Intensity (MFI), uptake 37C-4C, at 111 nM [5] [MFI] | Mean Fluorescence Intensity (MFI), uptake 37C-4C, at 333 nM [5] [MFI] | Mean Fluorescence Intensity (MFI), uptake 37C-4C, at 1000 nM [5] [MFI] | Mean Fluorescence Intensity (MFI), uptake 37C-4C, at 12 nM [8] [MFI] | Mean Fluorescence Intensity (MFI), uptake 37C-4C, at 37 nM [8] [MFI] | Mean Fluorescence Intensity (MFI), uptake 37C-4C, at 111 nM [8] [MFI] | Mean Fluorescence Intensity (MFI), uptake 37C-4C, at 333 nM [8] [MFI] | Mean Fluorescence Intensity (MFI), uptake 37C-4C, at 1000 nM [8] [MFI] | also measured |
| --- | --- | --- | --- | --- | --- | --- | --- | --- | --- | --- | --- | --- | --- | --- | --- | --- | --- | --- | --- | --- | --- |
| B1 | 67 | 85 | 123 | 192 | 43 | 50 | 73 | 145 | 381 | 1300 | 43 | 54 | 71 | 171 | 293 |  |  |  |  |  | Mean Fluorescence Intensity (MFI), uptake 37C-4C, at 3000 nM [1]: 427 MFI; Mean Fluorescence Intensity (MFI), uptake 37C-4C, at 12 nM [2]: 43 MFI; Mean Fluorescence Intensity (MFI), uptake 37C-4C, at 37 nM [2]: 54 MFI; Mean Fluorescence Intensity (MFI), uptake 37C-4C, at 111 nM [2]: 71 MFI; Mean Fluorescence Intensity (MFI), uptake 37C-4C, at 333 nM [2]: 171 MFI; Mean Fluorescence Intensity (MFI), uptake 37C-4C, at 1000 nM [2]: 293 MFI; Mean Fluorescence Intensity (MFI), uptake 37C-4C, at 12 nM [4]: 38 MFI; Mean Fluorescence Intensity (MFI), uptake 37C-4C, at 37 nM [4]: 47 MFI; Mean Fluorescence Intensity (MFI), uptake 37C-4C, at 333 nM [4]: 143 MFI; Mean Fluorescence Intensity (MFI), uptake 37C-4C, at 1000 nM [4]: 371 MFI; Mean Fluorescence Intensity (MFI), uptake 37C-4C, at 12 nM [6]: 54 MFI; Mean Fluorescence Intensity (MFI), uptake 37C-4C, at 37 nM [6]: 66 MFI; Mean Fluorescence Intensity (MFI), uptake 37C-4C, at 111 nM [6]: 101 MFI; Mean Fluorescence Intensity (MFI), uptake 37C-4C, at 333 nM [6]: 205 MFI; Mean Fluorescence Intensity (MFI), uptake 37C-4C, at 1000 nM [6]: 370 MFI |
| B2 | 70 | 86 | 138 | 267 |  |  |  |  |  |  |  |  |  |  |  |  |  |  |  |  | Mean Fluorescence Intensity (MFI), uptake 37C-4C, at 37 nM [1]: 75 MFI; Mean Fluorescence Intensity (MFI), uptake 37C-4C, at 3000 nM [1]: 631 MFI |
| B3 |  |  |  |  | 47 | 69 | 205 | 675 | 1810 | 3140 |  |  |  |  |  |  |  |  |  |  |  |
| B4 |  |  |  |  | 53 | 102 | 259 | 817 | 2100 | 4220 | 67 | 119 | 246 | 812 | 1390 | 61 | 124 | 364 | 839 | 1560 | Mean Fluorescence Intensity (MFI), uptake 37C-4C, at 7 nM [7]: 51 MFI; Mean Fluorescence Intensity (MFI), uptake 37C-4C, at 22 nM [7]: 122 MFI; Mean Fluorescence Intensity (MFI), uptake 37C-4C, at 76 nM [7]: 309 MFI; Mean Fluorescence Intensity (MFI), uptake 37C-4C, at 260 nM [7]: 937 MFI; Mean Fluorescence Intensity (MFI), uptake 37C-4C, at 882 nM [7]: 2070 MFI; Mean Fluorescence Intensity (MFI), uptake 37C-4C, at 3000 nM [7]: 3380 MFI |
| B5 |  |  |  |  |  |  |  |  |  |  | 167 | 390 | 724 | 1030 | 1260 | 108 | 334 | 763 | 1100 | 1360 | Mean Fluorescence Intensity (MFI), uptake 37C-4C, at 7 nM [7]: 84 MFI; Mean Fluorescence Intensity (MFI), uptake 37C-4C, at 22 nM [7]: 266 MFI; Mean Fluorescence Intensity (MFI), uptake 37C-4C, at 76 nM [7]: 593 MFI; Mean Fluorescence Intensity (MFI), uptake 37C-4C, at 260 nM [7]: 869 MFI; Mean Fluorescence Intensity (MFI), uptake 37C-4C, at 882 nM [7]: 1180 MFI; Mean Fluorescence Intensity (MFI), uptake 37C-4C, at 3000 nM [7]: 1440 MFI |
| B6 |  |  |  |  |  |  |  |  |  |  |  |  |  |  |  | 41 | 52 | 71 | 130 | 278 |  |
